Consider 60 molecules from patent US7304127.

B1: CXCR4 177-194 (peptide)
peptide: VSEADDRYICDRFYPNDL
modifications: not checked
B2: CXCR4 157-174 (peptide)
peptide: YVGVWIPALLLTIPDFIF
modifications: not checked
B3: CXCR4 137-154 (peptide)
peptide: AIVHATNSQRPRKLLAEK
modifications: not checked
B4: CXCR4 105-122 (peptide)
peptide: GNFLCKAVHVIYTVNLYS
modifications: not checked
B5: CXCR4 85-102 (peptide)
peptide: LLFVITLPFWAVDAVANW
modifications: not checked
B6: CCR5 49-66 (peptide)
peptide: MLVILILINCKRLKSMTD
modifications: not checked
B7: CXCR4 261-278 (peptide)
peptide: IDSFILLEIIKQGCEFEN
modifications: not checked
B8: CXCR4 265-282 (peptide)
peptide: ILLEIIKQGCEFENTVHK
modifications: not checked
B9: CXCR4 209-226 (peptide)
peptide: ILPGIVILSCYCIIISKL
modifications: not checked
B10: CXCR4 245-262 (peptide)
peptide: ILAFFACWLPYYIGISID
modifications: not checked
B11: CXCR4 197-214 (peptide)
peptide: VVFQFQHIMVGLILPGIV
modifications: not checked
B12: CCR5 53-70 (peptide)
peptide: LILINCKRLKSMTDIYLL
modifications: not checked
B13: CXCR4 193-210 (peptide)
peptide: DLWVVVFQFQHIMVGLIL
modifications: not checked
B14: CXCR4 73-90 (peptide)
peptide: TDKYRLHLSVADLLFVIT
modifications: not checked
B15: CXCR4 113-130 (peptide)
peptide: HVIYTVNLYSSVLILAFI
modifications: not checked
B16: CXCR4 117-134 (peptide)
peptide: TVNLYSSVLILAFISLDR
modifications: not checked
B17: CXCR4 61-78 (peptide)
peptide: LVMGYQKKLRSMTDKYRL
modifications: not checked
B18: CXCR4 181-198 (peptide)
peptide: DDRYICDRFYPNDLWVVV
modifications: not checked
B19: CCR5 57-74 (peptide)
peptide: NCKRLKSMTDIYLLNLAI
modifications: not checked
B20: CXCR4 229-246 (peptide)
peptide: SKGHQKRKALKTTVILIL
modifications: not checked
B21: CXCR4 121-138 (peptide)
peptide: YSSVLILAFISLDRYLAI
modifications: not checked
B22: CXCR4 213-230 (peptide)
peptide: IVILSCYCIIISKLSHSK
modifications: not checked
B23: CXCR4 101-118 (peptide)
peptide: NWYFGNFLCKAVHVIYTV
modifications: not checked
B24: CCR5 45-62 (peptide)
peptide: FVGNMLVILILINCKRLK
modifications: not checked
B25: CXCR4 153-170 (peptide)
peptide: EKVVYVGVWIPALLLTIP
modifications: not checked
B26: CXCR4 149-166 (peptide)
peptide: KLLAEKVVYVGVWIPALL
modifications: not checked
B27: CXCR4 249-266 (peptide)
peptide: FACWLPYYIGISIDSFIL
modifications: not checked
B28: CXCR4 97-114 (peptide)
peptide: DAVANWYFGNFLCKAVHV
modifications: not checked
B29: CXCR4 89-106 (peptide)
peptide: ITLPFWAVDAVANWYFGN
modifications: not checked
B30: CXCR4 205-222 (peptide)
peptide: MVGLILPGIVILSCYCII
modifications: not checked
B31: CXCR4 225-242 (peptide)
peptide: KLSHSKGHQKRKALKTTV
modifications: not checked
B32: CCR5 37-54 (peptide)
peptide: YSLVFIFGFVGNMLVILI
modifications: not checked
B33: CXCR4 233-250 (peptide)
peptide: QKRKALKTTVILILAFFA
modifications: not checked
B34: CXCR4 129-146 (peptide)
peptide: FISLDRYLAIVHATNSQR
modifications: not checked
B35: CXCR4 217-234 (peptide)
peptide: SCYCIIISKLSHSKGHQK
modifications: not checked
B36: CXCR4 57-74 (peptide)
peptide: GLVILVMGYQKKLRSMTD
modifications: not checked
B37: CXCR4 77-94 (peptide)
peptide: RLHLSVADLLFVITLPFW
modifications: not checked
B38: CCR5 41-58 (peptide)
peptide: FIFGFVGNMLVILILINC
modifications: not checked
B39: CXCR4 257-274 (peptide)
peptide: IGISIDSFILLEIIKQGC
modifications: not checked
B40: CCR5 1-18 (peptide)
peptide: MDYQVSSPIYDINYYTSE
modifications: not checked
B41: CXCR4 173-190 (peptide)
peptide: IFANVSEADDRYICDRFY
modifications: not checked
B42: CXCR4 189-206 (peptide)
peptide: FYPNDLWVVVFQFQHIMV
modifications: not checked
B43: CXCR4 109-126 (peptide)
peptide: CKAVHVIYTVNLYSSVLI
modifications: not checked
B44: CXCR4 253-270 (peptide)
peptide: LPYYIGISIDSFILLEII
modifications: not checked
B45: CXCR4 145-162 (peptide)
peptide: QRPRKLLAEKVVYVGVWI
modifications: not checked
B46: CXCR4 93-110 (peptide)
peptide: FWAVDAVANWYFGNFLCK
modifications: not checked
B47: CXCR4 165-182 (peptide)
peptide: LLLTIPDFIFANVSEADD
modifications: not checked
B48: CXCR4 81-98 (peptide)
peptide: SVADLLFVITLPFWAVDA
modifications: not checked
B49: CXCR4 169-186 (peptide)
peptide: IPDFIFANVSEADDRYIC
modifications: not checked
B50: CXCR4 237-254 (peptide)
peptide: ALKTTVILILAFFACWLP
modifications: not checked
B51: CXCR4 125-142 (peptide)
peptide: LILAFISLDRYLAIVHAT
modifications: not checked
B52: CXCR4 161-178 (peptide)
peptide: WIPALLLTIPDFIFANVS
modifications: not checked
B53: CXCR4 69-86 (peptide)
peptide: LRSMTDKYRLHLSVADLL
modifications: not checked
B54: CXCR4 133-150 (peptide)
peptide: DRYLAIVHATNSQRPRKL
modifications: not checked
B55: CXCR4 221-238 (peptide)
peptide: IIISKLSHSKGHQKRKAL
modifications: not checked
B56: CXCR4 241-258 (peptide)
peptide: TVILILAFFACWLPYYIG
modifications: not checked
B57: CXCR4 141-158 (peptide)
peptide: ATNSQRPRKLLAEKVVYV
modifications: not checked
B58: CXCR4 65-82 (peptide)
peptide: YQKKLRSMTDKYRLHLSV
modifications: not checked
B59: CXCR4 185-202 (peptide)
peptide: ICDRFYPNDLWVVVFQFQ
modifications: not checked
B60: CXCR4 201-218 (peptide)
peptide: FQHIMVGLILPGIVILSC
modifications: not checked

The test deals with HIV-1LAI envelope gp120 labeled with radioactive iodine (HIV-1 LAI), P03377. Description: 125I-gp120, peptide array.
With B1, the counts minus background (counts per 20 min) was 157. Take B2: the counts minus background (counts per 20 min) worked out at 124.

As for B3, the counts minus background (counts per 20 min) came out at 73. For B4 the value was 231; for B5, 63. With B6 the figure was 84. For B7 the value was 3470; for B8, 117.

With B9, the counts minus background (counts per 20 min) is 192. Regarding B10, the counts minus background (counts per 20 min) worked out at 184. For the molecule B11, the counts minus background (counts per 20 min) worked out at 589. With B12 the figure was 2; with B13, 422; with B14, 92. With B15 the figure was 118; with B16, 242; with B17, 105.

B18: the counts minus background (counts per 20 min) is 125. Turning to B19, the counts minus background (counts per 20 min) worked out at 25.

In the case of B20, the counts minus background (counts per 20 min) turned out to be 140. For B21 the value was 157; for B22, 277. With B23 the figure was 96. For B24, the counts minus background (counts per 20 min) was found to be 62. For B25 the value was 147; for B26, 89; for B27, 202. Turning to B28, the counts minus background (counts per 20 min) was determined as 112. With B29 the figure was 130. On to B30, for which the counts minus background (counts per 20 min) came to 167. On to B31, for which the counts minus background (counts per 20 min) stood at 130. As to B32, the counts minus background (counts per 20 min) came out at 347. Consider B33, for which the counts minus background (counts per 20 min) is 283.

As for B34, the counts minus background (counts per 20 min) was 91. As for B35, the counts minus background (counts per 20 min) turned out to be 259. Take B36: the counts minus background (counts per 20 min) came out at 157. As for B37, the counts minus background (counts per 20 min) turned out to be 136. With B38 the figure was 343; with B39, 734; with B40, 735. In the case of B41, the counts minus background (counts per 20 min) was 267. With B42 the figure was 416; with B43, 243. For B44, the counts minus background (counts per 20 min) was 439. For B45 the value was 127. For B46 the value was 66. Turning to B47, the counts minus background (counts per 20 min) was determined as 1010. With B48, the counts minus background (counts per 20 min) was 253. For the molecule B49, the counts minus background (counts per 20 min) was 438. As to B50, the counts minus background (counts per 20 min) worked out at 261. For B51 the value was 107.

Regarding B52, the counts minus background (counts per 20 min) was found to be 182.

As to B53, the counts minus background (counts per 20 min) was 160. Consider B54, for which the counts minus background (counts per 20 min) turned out to be 168.

In the case of B55, the counts minus background (counts per 20 min) amounted to 157. For B56 the value was 323; for B57, 78.

Regarding B58, the counts minus background (counts per 20 min) is 99. For B59 the value was 306; for B60, 170.
